Data published in a protein production outcome set (Wang et al. 2014).

Assay: label from the status in PepcDB records
In the case of “MGSTHHHHHHSSGRENLYFQGHMEEEMQRHIKLTPSQTTPVVLVVGDPGRVDKVKMLCDSYVDLAYNREYKSVECTYKGQKFLCVSHGVGSAGCAICFEELMNNGAKVIIRAGSCGSLQPTQMKRGDICICNAAVREDRVSHLMIYSDFPAVADFEVYDTLNKVAQELEVPVFNGISLSSDLYYPHKIIPTRLEDYSKANVAVVEMEVATLMVMGTLRKVKTGGIFIVDGCPLKWDEGDFDNNLVPEKLENMIKISLETCARLAKKY”, the protein production is reported as “not failed”.
With “MGSVQLSGSGLVASLPPNHSFSHKTKLNKPNSYFFRSKHNAARTKTVRAISTAPASQPPAADEPDEPPAVDFAFVHSVLLPDGTPDVHWRRANGGQKLRDIMLDSNIELYGPYSKPLSNCAGVGTCATCMVEIVNGKELLNPRTDIEKEKLKRKPKNWRLACQTNVGNPDSTGLVVIQQLPEWKAHEWNIPKNIPNDDDLETST” the protein production was “failed”.
For “MGTEVSTSPTSLIDQTVVPGDVVLDLSNMTNQTIKLGSGLRQDNEVISVMRAGKLRYSKPNKYWVESSHKRYVPRPEDHVLGIVVDCKGENYWIDIKGPQLALLPVLAFEGANRRNYPKFEVSTLLYTRVVKTNTGMNPELSCVDESGKAAGFGPLKDGFMFETSTGLSRMLLSSPTCPVLEALGKKLSFETAFGLNGRCWVHAAAPRIVIIVANALMNSETLSGTQQRIMVEKLLEKISD”, the protein production was “failed”.
For “MGTLPARRHIPPWVKVPEDLKDPEVFQVQTRLLKAIFGPDGSRIPYIEQVSKAMLELKALESSDLTEVVVYGSYLYKLRTKWMLQSMAEWHRQRQERGMLKLAEAMNALELGPWMK”, the protein production was “failed”.
For “MGTVSKALSLLALFNHGRLEMGLSELTRLSGMNKATVYRMMTELQAAGFVEQMNGDRAYRLGPEVLRLAALREAAVPLLSVSRDVLRRLCDETGETSHMSIQRNGQLTTLTHAYSSHHGTRVAMEDAEILSLHATGSGLAFLAFSSEEVVEHALSAPLIKHTPQTETDPARLRQALAEAQQSGVAESVGGFEADVHSHAAPIFGADQRPIGALAVAAPVSRMTAELKSRVRAALKEAALDLTQRTGGFCPPGYPGAA”, the protein production was “failed”.
For “MGVHIDSVVFSRAGALLTLKDEAEISEIRVYSESEEIASQEIGKNKDNVFVSFNWDPEARYRFEVITGSGASGTIEAYAPSKPALKKEYTIELEDVTPGDIEKTSTNVEGALKFSPDSEYLAIGTNGGSLKLIKVATGEKVWEKQLVKGIADARIADIEFSEDGKRLFVGEESPDAFLYCFDLEGTEIWKYGAGKELGSDLKYMPAMKKIKLDSEGNIYVAASRACGYIGEKYKYLARIYSFDPEGNLRWKFPESEYMDSGVTWIDATPDGKYAVFGTTCFTETEKWREGTVHALNGNTGQEHWSYKIQPVEPFFDYSAIWYSTQITPDGEKLITMTSDGRAFLFNNSRIIETGTPEITWQQNISTPIVVSGVPIYGSANYAYIVNDTLIFSIGSTFSKDKNKDAPFEHPSGNSLFAYDYDGNLLWKWRVDGYAGECAVNDRYLVIPLAQNLVTEDRSVHGVYVFDASKSGGASSRLIQTYNTEGITVSADISPDGRYIAALEAPSRLDDGTVLGEYKVHILTLEHHHHHH”, the protein production was “not failed”.
With “MGVKVATSSTFHQWVAHPIVHHSSSLSQTLASSAVSSPSRRRIIGNDGRSSLSCRSVMQSQRLNPSSPFGTSSTNLRHSKSCELWESTKRPKTQLIRRAFSANVDPFSEEEFAKKMQELTLKFQVSNEEEDNESDTRIDDYTRKMDIVGSHNNFRSDSMEPPWPEMVQMSNIERKANSVDLPLSLRIIKRKLQMEEGVLNQVGESACCSVKKAFSSMVFMIRELQSFTLHMRELLLFEDLQGILHRVRKEMQASFVWLFQQVFSATPTLMVSVMILLANFTVYSIESNSALAAAVSPPTTLSFSFETTAEISETQETNQKFDSSMVKTFSVSSPYGKTSFVGGGGGNNIPPPVQSGTDGDGSDQFRKSQFSSSSLGATSADSDVSVSGQEEIRLWNSILEETAKMETLDHETMKGMVSPVEARLEAEESMDYFKTELLYQTGLSQEPGNVLLLANYAQFLYLIIHDYDRAEKYFKRAAKAEPADAEALNKYATFLWRARNDIWRAEETYLEAISADPTNSVYSANYAHFLWNTGGDETCFPLDAPSQQNNTT” the protein production was “failed”.
With “MGVVERAIAPSVLAALADTPVVVVNGARQVGKTTLVARLDYPGSSEVVSLDDVANRDAARDDPRAFVSRPVDTLVIDEAQLEPGLFRAIKAEVDRDRRPGRFLLTGSARLLSAPDMADALVGRVEIIELWPFSQGERAGIADGFVDALFTAPRELIHGSDMRRADLVDRIATGGFPDIVARSPSRRRAWFDNYLTTATQSVIREISPIERLAEMPRVLRLCAARTGAELNVSALANDLSIPARTTAGYLALLEAAFLIHRVPAWSTNLSRKVIRRPKLVVSDSGLACHLLGVTGATLDRPGRPLGPLLETFVANEIRKQLTWSTERPSLWHFRDRGGAEVDLVLEHPDGRVCGIEVKATSTPRAEDLRGLRYLAERLDDRFQFGVLLTAAPEATPFGPTLAALPVSTLWAG” the protein production was “failed”.
For “MGVYPPSEDSFLIIEYASCSGKAIEIGCGTGIVSICFLKRGCDIEAVDISDLAVECAKDNASRNGLTLKVYRSDLFSGVSGTYDTILFNAPYIPVEGEDASWSGGRNLEVVSRFLGQAREHLSASGQIYIVLSDLTDNEGMFRMMGYDYFIIKKISFEFEAIVLYKLTLKALEHHHHHH”, the protein production was “failed”.
For “MGYLKNHWWKRWIRRRGCKLAGGPASVGKRTTLVLEERVELGHLRIVPPRLEIGAYSYVRSGTDLSLVASIGRFCSIGSDCFIGQEKHTHPSDWVSSHPFQHTGTALRYEPALSYAEIGHDVWIGHSAMVMEGVKVGTGAIIATRAVVTRDVPPYAIVAGTPAQVIRYRHPPEIIEGLLASRWWELDSAFLTGLPLDRPREFLAALEAREAPRAAYRRMTITRQGCRLDLEHHHHHH”, the protein production was “failed”.
For “MHAINFIQDLAVIMLVAGVVTILFHRLRQPVVLGYIVAGFIIGPHTPPVSLIHDEDTIKILAELGVIFLMFCLGLEFSLRKLFKVGATAFIAAFLEIALMIWIGYEIGQFFGWKTMDSLFLGAILAISSTTIIVKALNDLKMKNQHFAQLIFGVLIVEDILGIGIIALLSGIAVSGSVSSGEVFSTVGKLSLFMIVALVVGILLVPRLLSYVARFDSNEMLLITVLGLCFGFCLLVVKLEYSMVLGAFLIGAIMAESRELLKIERLIEPIRDMFSAIFFVAIGLMIDPKILLEYAWPIAVITVAVVLGKMISCGLGAFIAGNDGRTSLRVGMGLSQIGEFSFIIAALGMTLQVTSDFLYPVAVAVSAITTLLTPYLIRGADPLSLKLAAIMPRRVARVFGMYGEWLRSIQPQGQSAVLAGMIRRILLQVGVNLALVMAIFFSGGYFAERLGGYMDEWVADVSHQKAWICGAALLLSLPFLIAAYRKLKALSMLLAEMGVKPEMAGRHTVRVRKVVAEVIPLLSLVVIFVMLAALSASILPANELLLVVVLVAALVAALLWRWLIRVHTRMQIALLETLGNNQESSGH”, the protein production was “failed”.
For “MHALPGIRTLFLGMPSSTRSPETAVPRILTSRTDVTERSEHNALMFGSPKERWDFYRREIQYDTSILANRTDAYLAAQSFLVIAFASSMSNLNPEWGGLFTLLVPPFLALLCILTTLNAWPGIRAAYDIIDQWYFKQVQLLLAYDESPLFCESESTHKSYRKSLPFSLRAP”, the protein production was “failed”.
For “MHAPDALPGCAPVSPAPGYHGAPAVAGHAPTLGVTASMSSITLFQAPPPEAIQSQIQQMVVDYITDVSAVAIAPSNPLYNLYQYGVGYEVHLYLQAMDGSRGIAVELVVATDPQAPDQVLGFTLYLPVKDDPQACAVAYMAVLQGHRRQGIARQMLQAMLARYPHAELACNVAKVGCFEALGFQLLGARGPQVLMNTRDHGSDGLLAVLDVVTIYQSVEVRQIHTYLLAQHGRKAMLEAEKKRDRQLDQMTRQAQALVRERLGEAALYRSRAPQLIN”, the protein production was “failed”.
With “MHCVFLEFNMSVFKKIYFALSAFIVAPHIFLLMSSRHDNPIFRDIEVWSEKLLGKKISGRSGLVASVVELLSLAPEFRNLFYYRVPRARFFKFLSRPENTLHIHTRTIGPGFFIQHGFATIISAESIGADCWINQQVTIGYVDSTGAPKIGDNVTINAGAKVLGNIVIGDNAKVGANAVVVKNIPADCVVVGVPARIIRRAGARVDEAL” the protein production was “failed”.
In the case of “MHDATDSLPLCMTRPTRFRWVWWLLAYASLATGIVGIFVPGLPTTVLILNLRLGRLTWLRSRLHYWLLSHPRFGPAIVEWQTYRAVSRKAKWMATLTMSICAAIMLWCVPVFWVKCLSIGSMAVVAIWLWLRPEPPPRPLPAAH”, the protein production is reported as “failed”.
In the case of “MHEDRKRRRGKLRTAVHFKAPRRARFSRFPLFPRLNPMPAAPTDAHAALPIALRDLIRLHAPQATLLAAIGQRILNIQAEGAPTEEAQLVPPDDWLEHGDLAWITRDGALLGLLWSDGAPVPDGAVQVLTLLLSAASAEGASREADMLITQLPAATAWLSAELEFRQVSRTFLELFGLTGADVLGRTVHEVFPDHAALAQQLDSAAAGRAVQLGDERVPSLPGHSGERWLRGSARPYFGGAAAGVLWTVQDVSTEHTQTTQFAALLGTDLPLALLGPGGAVQGASRGMRQLLGEPEDLAEAQAHPQRPLHEWPCWAPAGARLLQDLIQSAEAGRPSPVPSEIALARGGQLPLLVRRSDTVPGLLLAEGVRPAAVSEDNGAARLLHLSGAATILLDPQGRVQLISEPAARLLGFDPHNIALTGLPLPRLHQQLGIKLHTPQGNPLTVPPLSALTLPHNGEVLAVLPGGVTRHLEISLSALPGSGQSTGSSAASPGRSAAPELLLSLRDVTTLRRAQAKLRHDASHDGLTGLLNRSGLRAALGQATAAQTGGMVACLDIDGFGGLNAALSRTAGDLLLIQVAARLNDLAELEGGQAARLADDTFAVYLPQLGAAVGGQKLQAALREPLRTGKRLVPVTFSLGAAPLLAAAPEQALADAEVALQHARRQGRGQLTVFEPDMRAEEAQTFELEDQLRAVLDRGLQHEQFSLLYQPAVSLKDGRVLGAEALLRWTHPELGNVSPARFLPLAQRSDLITSIGEWVVREAVQGRTQLRDATGQRNWRTSVNLSLEELRREGAIERLLPLITRPSALDIEVSASSLLDHSEETLGLLDALRARGARLIVDDFGDGASSLTALTQFPLYGVKLHPTLTTRLPGDQKSLKLVQGTVSLAHSLGLTVTAVGVETYAQLDMLRDLGCDAAQGYALTPPLSAGDLVTWVQGR”, the protein production is reported as “failed”.
For “MHEIAPLSPAAAALADFQPDRGPAALNGAAVFCGFAPRPLDDGFTWADFGCGLGITASILAAANPQGRFFAIDADGQALAAGRALAKAAFLDNLTFLQADYTKPHDLDLPPLDFAVLGNVLCWLDGQERQALLSRLGTLLKPGGIVLATYDALPGAAALVPLRDLLFSVTAGQAANPVARARAAIDWLGAMRAAGIDFFRDNPALGPRLDALIERGPQALAGRFFGGTLRPLHFAQVNAEMAAQGLTFAGRAEAFLNLIDLAVPAALRPRLRAATSRAEVEATRDFIRNEDHRRDLYIKGAAPSDGAALTAFDDGRILGPAAAPGQANPEVSFGAVSLSFRGALFESLLAALDLGPRPVGELCASAALEGVPPGLIRDGLRLLTAGGLARPYARAADVAPAAPPVWPLRLPHPLNRALALTLGLGGPTVALASKVLGDGVVMDNRDALLLVALCDAGPEGAVERALAILADQAIPCGPATTQALTDRLSPLITDILPWLRVLGVVEG”, the protein production was “failed”.
With “MHEKLLTLCDCAFEARLIELEMRVSFQEQALTEISEALAETRLIGARNAELMRHLLEELGKVRNTLYEHPIDEPPPHY” the protein production was “failed”.
For “MHEQLSPRDQELEARLVELETRLSFQEQALTELSEALADARLTGARNAELIRHLLEDLGKVRSTLFADAADEPPPPHY”, the protein production was “not failed”.
In the case of “MHETKVKLSNGLELHVEVGGNPDHPTILLIMGLGAQMLFWPDFFCKSLIDQGFYVIRFDNRDIGLSSKIRHKGKRLNTLKLMSRFTLGLGNQGAPYTLYDMAEDVSLLLEAMRIKKVNVIGASMGGMIAQIIAAKYPEKVEKLALMFTSNNQPLLPPPFPKQLFSLIGKPKSSDEDGIINHSLKLFEIIGSPGYVNQVEAIQTARKLYQRSYHPAGVLQQFLAILCTGSLLQLDKQISQPTLVIHGSRDRLLPPSHGKAVAKAIKGAKFELIQGMGHDIPPHFIPQLSYLFAHHFRS”, the protein production is reported as “failed”.
